{"source": "patent US5348941A", "about": "“Stabilizers for fibroblast growth factors” (Merck & Co., Inc., priority 1992, dated 1994)", "type_in_all_cases": "biochemical", "key": {"aFGF [1]": {"molecular_target": "T1, aFGF (Homo sapiens, UniProt P05230)", "T1 construct": "The recombinant derived, 140 amino add form is the preferred form of aFGF; N-terminal methionine (MetHaFGF); made in house; host or cells: microbial cells (preferred embodiment)", "T1 sequence (P05230 16-155 limits assumed)": "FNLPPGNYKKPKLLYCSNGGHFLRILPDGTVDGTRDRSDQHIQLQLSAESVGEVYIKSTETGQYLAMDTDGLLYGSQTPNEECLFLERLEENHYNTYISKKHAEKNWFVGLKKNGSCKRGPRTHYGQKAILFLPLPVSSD", "assay": "Thermal denaturation (Tm) of aFGF by fluorescence spectroscopy", "conditions": "no heparin, PBS pH 7.2", "experimental": "Fluorescence spectra are obtained with a Spex Fluorolog-2 spectrofiuorometer using a 1 mm pathlength cuvette. Band passes from 1-2 nm are employed with sample absorptivities maintained below 0.1 at 280 nm. The temperature is controlled either manually or automatically as described above. Reproducibility of thermal denaturation temperatures (Tm) is ± 2° C.\nTo more directly ascertain the effect of heparin on aFGF stability, the temperature-induced denaturation of aFGF as a function of heparin concentration was monitored by fluorescence spectroscopy. Fluorescence spectra were obtained with a Spex Fluorolog-2 spectrofiuorometer using a 1 mm pathlength cuvette. Band passes from 1-2 nm were employed with sample absorptivities maintained below 0.1 at 280 nm. The temperature was controlled either manually or automatically as described above. Reproducibility of thermal denaturation temperatures (Tm) was ±2° C. […] Experiments were carried out at 100 μg/ml protein (6.3 μM) in a PBS buffer at pH 7.2. Curve drawn through data points for clarity only.\nStudies of the stabilization of aFGF by heparin are difficult to interpret because of the inherent heterogeneity of heparin preparations, Lane and Lindahl, Eds. Heparin, Chemical and Biological Properties, Clinical Applications, Edward Arnold, London (1989); Jackson, et al., Physiol. Rev. 71: 481-539 (1991). In order to better understand the polyanionic stabilization of aFGF, a series of well-defined fragments of heparin were examined for their ability to stabilize aFGF against thermal denaturation. These enzymatically prepared and purified fragments varied in size from a disaccharide to a decasaccharide. Each fragment was incubated with aFGF at a 1:1 weight ratio in a PBS buffer. The sample was then stressed by temperature and structural changes in aFGF were monitored by both circular dichroism and fluorescence spectroscopy. […] All samples contained 100 μg/ml aFGF (6.3 μM)in a PBS buffer (pH 7.2) with 100 μg/ml of each heparin fragment.\nSince these fragments of heparin have a well-defined molecular weight, the molar ratio of aFGF to ligand during these thermal denaturation experiments can be calculated. The Tm of aFGF as a function of the molar concentration of the hexasaccharide was measured by fluorescence spectroscopy. Fluorescence spectra were obtained with a Spex Fluorolog-2 spectrofiuorometer using a 1mm pathlength cuvette. Band passes from 1-2 nm were employed with sample absorptivities maintained below 0.1 at 280 nm. The temperature was controlled either manually or automatically as described above. Reproducibility of thermal denaturation temperatures (Tm) was ±2° C.\nAnalogous to the heparin experiments illustrated in Example 1 (FIG. 3), aFGF thermal stability was monitored by fluorescence spectroscopy as a function of concentration for several other of the polyanions. […] All samples contained 100 μg/ml of aFGF (6.3 μM) in a PBS buffer at pH 7.2."}, "aFGF [2]": {"molecular_target": "T1, aFGF", "assay": "Thermal denaturation (Tm) of aFGF by circular dichroism", "conditions": "buffer alone", "experimental": "Circular Dichroism (CD) spectra are measured with an AVIV 62 DS spectropolarimeter. Samples of aFGF at about 100 μg/ml in a PBS buffer (6 mM sodium phosphate, 120 mM NaCl, pH 7.2) containing various ligands are placed into 1 mm pathlength cells and the cell temperature is controlled by circulating a water/ethylene glycol mixture through the cell holder. Thermal denaturation is carded out under computer control by increasing the temperature of the water bath in 2° C. increments, followed by a two-minute equilibration period at each temperature to allow the sample to reach thermal equilibrium. Reproducibility of the midpoint of these temperature melting curves (Tm) is ±2° C.\nThe maximum Tm values induced by 12 different ligands as determined by circular dichroism measurements at 228 nm are summarized in the first column of Table II. All of these ligands stabilize aFGF by 15°-25° C. in a manner similar to that originally observed with heparin. […] Furthermore, sulfate unions are found near analogous residues in the crystal structure of basic FGF, Eriksson et al., Proc. Natl. Acad. Sd. USA 88:3441-3445 (1991); Zhang et al., Proc. Natl. Acad. Sci. USA 88:3446-3450 (1991). Consequently, it seemed important to examine the ability of these ligands to stabilize aFGF during thermal denaturation as monitored by both fluorescence and circular dichroism. The Tm value of aFGF increased from 27° C. to 43° C. (fluorescence)and 45° C. to 51° C. (CD) when a 100 molar excess (3X by weight) of (IrCl6)^-3 was present. Similarly, sulfate union (120 mM) produced a species that was even more dramatically stabilized, melting at 57° C. (CD).\n^(a) Thermal melting temperatures were measured by circular dichroism\nSamples contained […] aFGF in PBS buffer pH 7.2 with excess ligand\n(1-3× by weight except for 120 mM sodium sulfate and 10 mM"}, "aFGF [3]": {"molecular_target": "T1, aFGF", "assay": "Copper-catalyzed oxidation of aFGF thiol groups", "experimental": "Copper-catalyzed oxidation of aFGF is carried out in the following manner. Acidic FGF (about 80 μg/ml) is incubated in a 20 mM Tris, 0.15M potassium chloride, pH 8 solution containing about 20 μM cuptic chloride for varying periods of time at room temperature. The reaction was terminated by the addition of 100 mM EDTA in the same buffer. A solution of about 0.7 ml of 0.25M Tris (about pH 8) containing about 2 mM EDTA and about 7 M GuHC1 is then added followed by about 35 μl of 4 mg/ml of DTNB (Sigma). Samples were incubated for 30 minutes, filtered through a 0.22 micron filter and the optical density measured at about 412 nm to determine sulfhydryl content, Riddles et al., Meth. Enzymol. 9:49-60 (1983). Relative standard deviation of the obtained values during time course experiments is 12%.\nAcidic FGF contains three free cysteine residues at positions […], 83 and 117 in the polypeptide chain. […] It has also been shown that the copper catalyzed oxidative formation of a disulfide bond in the wild-type aFGF inactivates the protein in an in vitro mitogenic assay, Ortega et al., J. Biol. Chem. 266:5842-5846 (1991). Therefore, it was of interest to determine the extent to which heparin can stabilize aFGF against inactivation by oxidation. […] Samples contained 80 μg/ml aFGF with (a) 3X heparin by weight, (b) 0.1X heparin by weight and (c) buffer alone. As heparin was introduced and its concentration increased, the rate of copper-catalyzed oxidation decreased. For example, after 20 minutes, greater than 95% of the cysteine residues of aFGF are protected from oxidation with 3X heparin. FIG. 4B illustrates the fraction of remaining reactive thiol groups after a 10-minute incubation with cupric chloride as a function of heparin concentration.\nSome aggregation of aFGF occurs under the conditions of these experiments presumably due to at least partial intermolecular disulfide formation. Thus, these measurements could simply be a measurement of the loss of solubility induced by copper association with aFGF. Several experiments, however, argue against this possibility. First, previous work has shown that at dilute protein concentration, copper does indeed catalyze oxidation of thiol groups of aFGF, Ortega et al., J. Biol. Chem. 266:5842-5846 (199 1 ). Second, as a control experiment, the copper-catalyzed oxidation of aFGF was carded out in a buffer containing 6 M GuHCl. Under these denaturing conditions, nearly 100% of the thiol groups in solution were lost after 10 minutes without visible aggregation. […] Regardless of the precise mechanism, copper addition is a distinct mechanism of inactivation compared to thermal stress.\nSimilar protection against oxidation experiments were carried out with other negatively charged compounds with an excess of ligand (3X by weight except for sodium sulfate at 120 mM and tetrapolyphosphate at 10 mM) added to aFGF before copper catalyzed oxidation. As shown in the second column of Table 2, all of these agents at least partially protect the cysteine residues of aFGF from oxidation.\n^(b) Percentage of aFGF thiols remaining in solution after 10 min\nincubation with cupric chloride. Experimental conditions are described in\nFIG. 10. All samples contained ligand at 3× (by weight) except\nsodium sulfate (120 mM) and tetrapolyphosphate (10 mM)."}, "aFGF [4]": {"molecular_target": "T1, aFGF", "assay": "Copper-catalyzed oxidation of aFGF thiol groups", "conditions": "6 M GuHCl, 10 minutes, 1 μM CuCl2, 5 μM aFGF"}}, "data": [{"substance": "aFGF: human acidic fibroblast growth factor, molecular mass of about 15.9 kDa", "values": [{"measurement": "thermal denaturation temperature (Tm) of aFGF, fluorescence", "setting": "aFGF [1]", "value": 27, "unit": "°C"}, {"measurement": "thermal denaturation temperature (Tm) of aFGF, fluorescence", "setting": "aFGF [1]; listed as native aFGF", "value": "< 30", "unit": "°C"}, {"measurement": "Tm of aFGF, circular dichroism", "setting": "aFGF [2]", "value": 45, "unit": "°C"}, {"measurement": "thiol groups of aFGF lost", "setting": "aFGF [3]; 6 M GuHCl, 10 minutes", "value": "~100", "unit": "%"}, {"measurement": "free thiols of aFGF lost", "setting": "aFGF [3]; 10-minute incubation, absence of polyanions", "value": 60, "unit": "%"}, {"measurement": "total thiol groups of aFGF reacted", "setting": "aFGF [3]; buffer alone, after 6 hours, cupric chloride", "value": "70-75%"}, {"measurement": "thiol groups of aFGF oxidized", "setting": "aFGF [3]; buffer alone, within several minutes, cupric chloride", "value": "50-60%"}, {"measurement": "loss of thiol groups of aFGF", "setting": "aFGF [4]", "value": 10, "unit": "%"}]}]}
